The experiment addresses RecA protein (E. coli).

On to RecA N-30 (peptide), for which the I50, ATPase activity of the RecA NPF stood at 600 µM.
